Measured values reported in patent US10251952B2, “Humanized anti-tau(pS422) antibody brain shuttles and use thereof” (Hoffmann-La Roche Inc., priority 2014, dated 2019).
Numbering of substitutions follows the chain as printed.

B1: VH14 with VL12: anti-human tau(pS422) antibody; VH SEQ ID NO: 50, VL SEQ ID NO: 34 (antibody, V domains shown)
VH: QQLVESGGGLVQPGGSLRLSCAASGFSLSSNAINWVRQAPGKGLEWVGYIAVSGNTYYASWAKGRFTISRDNSKNTLYLQMNSLRAEDTAVYYCGKSNIWGPGTLVTVSS
VL: DIQMTQSPSSLSASVGDRVTITCRASQGVRTNKLAWFQQKPGQPPKRLIYSASTLQSGVPSRFSGSGSGTEFTLTISSLQPEDFATYYCLGYFDCSIADCVAFGGGTKVEIK
modifications: humanized sequence
B2: VH14 with VL15: anti-human tau(pS422) antibody; VH SEQ ID NO: 50, VL SEQ ID NO: 35 (antibody, V domains shown)
VH: B1 VH
VL: B1 VL with C95S, C100S
modifications: humanized sequence
B3: VL17 with VH18: anti-human tau(pS422) antibody; VH SEQ ID NO: 52, VL SEQ ID NO: 37 (antibody, V domains shown)
VH: B1 VH with S60D, W61S, A62V, P102Q
VL: B1 VL with A25S, G28S, Q56D, S57F
modifications: humanized sequence
B4: VL17 with VH22: anti-human tau(pS422) antibody; VH SEQ ID NO: 54, VL SEQ ID NO: 37 (antibody, V domains shown)
VH: EVQLLESGGGLVQPGGSLRLSCAASGFSLSSNAINWVRQAPGKGLEWVGYIAVSGNTYYADSVKGRFTISRDNSKNTLYLQMNSLRAEDTAVYYCGKSNIWGQGTLVTVSS
VL: B1 VL with A25S, G28S, Q56D, S57F
modifications: humanized sequence
B5: VL17 with VH23: anti-human tau(pS422) antibody; VH SEQ ID NO: 55, VL SEQ ID NO: 37 (antibody, V domains shown)
VH: B4 VH with L4V, A24V, R71K, L78V
VL: B1 VL with A25S, G28S, Q56D, S57F
modifications: humanized sequence
B6: VL17 with VH24: anti-human tau(pS422) antibody; VH SEQ ID NO: 56, VL SEQ ID NO: 37 (antibody, V domains shown)
VH: B4 VH with R71K, L78V
VL: B1 VL with A25S, G28S, Q56D, S57F
modifications: humanized sequence
B7: VL19 with VH01: anti-human tau(pS422) antibody; VH SEQ ID NO: 46, VL SEQ ID NO: 38 (antibody, V domains shown)
VH: B1 VH with P102Q
VL: B1 VL with D1A, I2Q, Q3V, A25S, G28S, Q56D, S57F
modifications: humanized sequence
B8: VL19 with VH18: anti-human tau(pS422) antibody; VH SEQ ID NO: 52, VL SEQ ID NO: 38 (antibody, V domains shown)
VH: B1 VH with S60D, W61S, A62V, P102Q
VL: B1 VL with D1A, I2Q, Q3V, A25S, G28S, Q56D, S57F
modifications: humanized sequence
B9: VL19 with VH19: anti-human tau(pS422) antibody; VH SEQ ID NO: 53, VL SEQ ID NO: 38 (antibody, V domains shown)
VH: B1 VH with S60D, W61S, A62V, R70K, P102Q
VL: B1 VL with D1A, I2Q, Q3V, A25S, G28S, Q56D, S57F
modifications: humanized sequence
B10: VL19 with VH22: anti-human tau(pS422) antibody; VH SEQ ID NO: 54, VL SEQ ID NO: 38 (antibody, V domains shown)
VH: B4 VH
VL: B1 VL with D1A, I2Q, Q3V, A25S, G28S, Q56D, S57F
modifications: humanized sequence
B11: VL19 with VH23: anti-human tau(pS422) antibody; VH SEQ ID NO: 55, VL SEQ ID NO: 38 (antibody, V domains shown)
VH: B4 VH with L4V, A24V, R71K, L78V
VL: B1 VL with D1A, I2Q, Q3V, A25S, G28S, Q56D, S57F
modifications: humanized sequence
B12: VL19 with VH24: anti-human tau(pS422) antibody; VH SEQ ID NO: 56, VL SEQ ID NO: 38 (antibody, V domains shown)
VH: B4 VH with R71K, L78V
VL: B1 VL with D1A, I2Q, Q3V, A25S, G28S, Q56D, S57F
modifications: humanized sequence
B13: VL17 with VH00: anti-human tau(pS422) antibody; VH SEQ ID NO: 11, VL SEQ ID NO: 37 (antibody, listed as Oryctolagus cuniculus, V domains shown)
VH: QSVEESGGRLVTPGTPLTLTCTVSGFSLSSNAINWVRQAPGKGLEWIGYIAVSGNTYYASWAKGRFTISKASTTVDLKMTSPTAEDTGTYFCGKSNIWGPGTLVTVSL
VL: B1 VL with A25S, G28S, Q56D, S57F
modifications: humanized sequence
B14: VL17 with VH01: anti-human tau(pS422) antibody; VH SEQ ID NO: 46, VL SEQ ID NO: 37 (antibody, V domains shown)
VH: B1 VH with P102Q
VL: B1 VL with A25S, G28S, Q56D, S57F
modifications: humanized sequence
B15: VL17 with VH02: anti-human tau(pS422) antibody; VH SEQ ID NO: 47, VL SEQ ID NO: 37 (antibody, V domains shown)
VH: B1 VH with Q2S, L3V, V4L
VL: B1 VL with A25S, G28S, Q56D, S57F
modifications: humanized sequence
B16: VL17 with VH03: anti-human tau(pS422) antibody; VH SEQ ID NO: 48, VL SEQ ID NO: 37 (antibody, V domains shown)
VH: B1 VH with Q2S, L3V, V4L, A23V
VL: B1 VL with A25S, G28S, Q56D, S57F
modifications: humanized sequence
B17: VL17 with VH04: anti-human tau(pS422) antibody; VH SEQ ID NO: 49, VL SEQ ID NO: 37 (antibody, V domains shown)
VH: QSVLESGGGLVQPGGSLRLSCAVSGFSLSSNAINWVRQAPGKGLEWVGYIAVSGNTYYASWAKGRFTISRDSTTLYLQMNSLRAEDTAVYYCGKSNIWGPGTLVTVSS
VL: B1 VL with A25S, G28S, Q56D, S57F
modifications: humanized sequence

These molecules were tested against human tau(pS422) (Homo sapiens, UniProt P10636, S739X) (assay: BIAcore kinetic screening and kinetic rates of humanized VH/VL combinations). Details: 25 °C; VH14 or VH20 with VL variants.
Type: binding
Procedure: In the following Table characteristics of the different humanized variants of the rabbit light chain variable domain in combination with the humanized heavy chain variable domains VH14 and VH20, respectively, are shown. Binding partner was human tau(pS422).
Kinetic screening was performed according to Schraeml et al. (Schraeml, M. and M. Biehl, Methods Mol. Biol. 901 (2012) 171-181) on a BIAcore 4000 instrument, mounted with a BIAcore CM5 sensor. The BIAcore 4000 instrument was under the control of the software version V1.1. A BIAcore CM5 series S chip was mounted into the instrument and was hydrodynamically addressed and preconditioned according to the manufacturer's instructions. The instrument buffer was HBS-EP buffer (10 mM HEPES (pH 7.4), 150 mM NaCl, 1 mM EDTA, 0.05% (w/v) P20). An antibody capture system was prepared on the sensor surface. A polyclonal goat anti-human antibody with human IgG-Fc specificity (Jackson Lab.) was immobilized at 30 μg/ml in 10 mM sodium acetate buffer (pH 5) to spots 1, 2, 4 and 5 in the instrument's flow cells 1, 2, 3 and 4 at 10,000 RU using NHS/EDC chemistry. In each flow cell the antibodies were captured on spot 1 and spot 5. Spot 2 and spot 4 were used as reference spots. The sensor was deactivated with a 1 M ethanolamine solution. Humanized antibody derivatives were applied at concentrations between 44 nM and 70 nM in instrument buffer supplemented with 1 mg/ml CMD (carboxymethyldextrane). The antibodies were injected at a flow rate of 30 μl/min for 2 minutes. The capture level (CL) of the surface-presented antibodies was measured in rel. response units (RU). The analytes in solution, phosphorylated human tau protein, non-phosphorylated human tau protein and the phosphorylated human tau mutant protein T422S were injected at 300 nM for 3 minutes at a flow rate of 30 μl/minute. The dissociation was monitored for 5 minutes. The capture system was regenerated by a 1 minute injection of 10 mM glycine buffer, pH 1.7 at 30 μL/minute over all flow cells. Two report points, the recorded signal shortly before the end of the analyte injection, denoted as binding late (BL) and the recorded signal shortly before the end of the dissociation time, stability late (SL), were used to characterize the kinetic screening performance. Furthermore, the dissociation rate constant kd (1/s) was calculated according to a Langmuir model and the antibody/antigen complex half-life was calculated in minutes according to the formula ln(2)/(60*kd). The molar ratio (MR) was calculated according to the formula MR=(Binding Late (RU))/(Capture level (RU))*(MW(antibody)/(MW(antigen)). In case the sensor was configured with a suitable amount of antibody ligand capture level, each antibody should be able to functionally bind at least to one analyte in solution, which is represented by a molar ratio of MR=1.0. Then, the molar ratio is also an indicator for the valence mode of analyte binding. The maximum valence can be MR=2 for an antibody binding two analytes, one with each Fab valence.
In another embodiment, kinetic rates were determined at 25° C. and 37° C. using the same experimental setup, but using multiple concentration series of each analyte in solution at 0 nM (buffer), 1.2 nM, 3.7 nM, 11.1 nM, 33.3 nM, 100 nM and 300 nM. From the concentration-dependent binding behavior the kinetic data was calculated using the BIAcore evaluation software according to the manufacturer's instructions and a Langmuir 1.1 model with RMAX global.

B1 and B2 are within 1.5-fold of each other in “kd” value: 0.00248 s⁻¹ for the first, 0.00363 s⁻¹ for the second.

First: B1
Second: B2
The “t/2 diss” value of the first is 1.7-fold higher: 5 min for the first, 3 min for the second.

Same assay, conditions: 25 °C; VL17 or VL19 with VH variants

B3 and B4 are within 1.5-fold of each other in “kd” value: 0.0023 s⁻¹ for the first, 0.002 s⁻¹ for the second.

B5 and B6 are within 1.5-fold of each other in “kd” value: 0.0007 s⁻¹ for the first, 0.00079 s⁻¹ for the second.

B7 and B8 are the same in “kd” value: 0.0019 s⁻¹ for the first, 0.0019 s⁻¹ for the second.

B9 and B10 are within 1.5-fold of each other in “kd” value: 0.002 s⁻¹ for the first, 0.0021 s⁻¹ for the second.

B11 and B12 are within 1.5-fold of each other in “kd” value: 0.00057 s⁻¹ for the first, 0.00063 s⁻¹ for the second.

Going from B13 to B14, the “kd” value rises from 0.000498 s⁻¹ to 0.0023 s⁻¹ (4.6-fold).

B15 and B16 are within 1.5-fold of each other in “kd” value: 0.00371 s⁻¹ for the first, 0.00393 s⁻¹ for the second.

B17 was tested, and the “kd” value was 0.00416 s⁻¹.

B3 and B4 are within 1.5-fold of each other in “t/2 diss” value: 5 min for the first, 6 min for the second.

B5 and B6 are within 1.5-fold of each other in “t/2 diss” value: 17 min for the first, 15 min for the second.

B7 and B8 are the same in “t/2 diss” value: 6 min for the first, 6 min for the second.

B9 and B10 are the same in “t/2 diss” value: 6 min for the first, 6 min for the second.

B11 and B12 are within 1.5-fold of each other in “t/2 diss” value: 20 min for the first, 18 min for the second.

First: B13
Second: B14
The “t/2 diss” value of the first is 4.6-fold higher: 23 min for the first, 5 min for the second.

B15 and B16 are the same in “t/2 diss” value: 3 min for the first, 3 min for the second.

In the case of B17, the “t/2 diss” value is reported as 3 min.
